Laboratory results reported in the DeepSol protein solubility set.

experiment: soluble on expression in E. coli; label from the status in PepcDB or PDB records

Sequence	soluble on expression in E. coli
MGKTSKYVTAAALCSTIVMGGLHASSVSYAATNPTVATLQSDAKLLNDFKKELKKQIDNREENITITYKTKDRNARNIMDELYGEFNKIVDADEYVKYNIASTRYSIKGLPGNYTFTLQVKYRESKEQTQYVKSQAKAIIGSIVKPGMDEHEKVKAIHDYVVKHVSYDTSYQAYTAYEALANRSAVCQGYTLLTYELLKEAGIQNRIVTGTGNGQAHSWNLVNIENKWYHLDTTFDDPVPDKAGRVTYSYFNMSDEQLSKDHDWDRSKYPAATTSYFNELTNKIKAGSSKTATYEQMLKETNLKYLSAQYGADNYSEFKEKLQQQFASKPEKVEVRYKQSMDGTMQDIKKVLNEINWPKGAKRVSYQVAPYSAMADYSLATITFTY	not soluble
MGLDKGKQQTAKKPGFNCKPFEFEISSTKFQIPNDKPLKYTLKCTADEKQDVIIQVHSVFFEIVGARRKHGVTSQEFHVLGKNEEMTFEIGLKDLTNVSYDNFEHAQLASAAGFITFTHYKSSRDDDSDASWGPNKNLLIVITDGMEEVGFWKKKLSVETETDEMKKVKEEFGVKLEGEKKYEEIDKMEMDRMRKEIGKNQSARDDGFAPIKDMHKKYLKEKYECVIS	soluble
MGLIKTIGRKPSVQWALSHLASGYLRLVRRTNRFTLEPADAYARLDAFGPFIAAMWHGQHIMISFMSRPQDRVATIISRSPDGNINTMALTRMGVRVMRASGARGRAVKDARAKGGAEGLRAMVKALKGGETVAFSADVPKVSRVCDAGIILLARFSGAPIVPVAVVTSRHIRFNSWDRACLGLPFGRGAMVFGEATFVPREVTPEEVDALRQRVQDELNRVHDRAYTLVGLEHHHHHH	soluble
MGLIMAKLFQSWWIGKKYKIIVVGLDNAGKTTILYNYVTKDQVETKPTIGSNVEEVSYRNLDFVIWDIGGQESLRKSWSTYYVQTDVVIVVIDSSDTTRIPIMKEQLHNMLQHEDLARAHILVLANKQDLPGAMNPAEVSTQLGLQTLRGARKWQINGCCAVKGEGLPEALEWIANNL	not soluble
MGLLAHFLKGPHKKTTLLLTRAGPVENPRHVLYSHPGLPLSPKGRSALLALLPLLQGFPVAHVYAADSLAEAEAARLFAEALGVPYTLLPELRERAWGAWEGLSFPEVEARFPGAVAAWTADEAGFAPPGGESVREAWERGRRAVKALLGKHRGQAILVVGNCTLNRAALSLALPLPPEEGLRLEQDYARLSVVDFYGEEGVVKALNLAVDWGHDPARGPQGPPGAS	soluble
MGLRDRFSNYLFKKAEKRGYLDNVLGKSIRYSGVYVTDSNILQSSDVYELLQDISNQMVLADIVVEDEFGNEIKDDIALQILRNPNNYLTQSEFIKLMTNTYLLEGETFPILNGAQIHLASNVFTELDDNLVEHFNIGGHEIPPCMIRHVKNIGADHLRGKGILDLGRDTLEGVMSAEKTLTDKYKKGGLLTFLLNLDAHINPQNGAQSKLINAILDQLESIDEARSVKMIPLGKGYSIDTLKSPLDDEKTLAYLNVYKKDLGKFLGINVDTYTELIKEDIEKAMMYIHNKAVRPIMKNFEDHLSLLFYAQNSGKRIKFKINILDFVTYSNKTNIGYNLVRTAITSPDNVADMLGFPKQNTKESQAIYISNDVTEIGKKEATDGSLGGGEENEN	not soluble
MGLRNENGIVVYPLINGAYRVAASDNYTSNFGLEWNTFQKTQIDKFSGNTVSEERLFAQTNWQKNGLEGETILEVGSGAGRFSQIMLDHTKATLYSVDYSEAVEANYRNNGPHERFKLFQASIYELPFKQASFDRVICLGVLQHTPDFKASVKALVEMVKPGGELVIDFYPIRNVFTKVHGKYLLRPILKRVNHHRLMSLIRNNIDFLISIYTFNRRIGLGVFNRFVPICEIERTLPKGMTPEQLKEWIILDTFDMFSPEYDQPQRLSTVAKWVKEFGMADVDASWVTYHGLEHHHHHH	not soluble
MGLTAGIVGLPNVGKSTLFNAITQAGAESANYPFCTIDPNVGIVEVPDERLNKLTELVEPKKTVPTVFEFTDIAGIVKGASKGEGLGNKFLSHIRQVDAICQVVRCFEDENITHVSGKVDPIDDIETINLELILADLESVDKRIERVAKLARQKDKEAVYEHEILVRLKEAFEEGKPARTVEFTEEQMKIVKGLHLLTTKEMLYVANVSEDDVIDPSENKYVQMVKEFAANENSQVIVVCAKIESEIAELDEEEKKVFLEELGIEESGLDQLIRAAYDLLGLATYFTAGVQEVRAWTFKQGMKAPQCAGVIHTDFERGFIRAETVSYEDLMTNGSMTAAKEAGKVRLEGKEYIVKDGDVMHFRFNV	soluble
MGLVQTNDQQLFIGVDGGGSKCRATIYTADGTVLGTGVAGRANPLHGLAQTFESIEASAHQALLDAGMKATDSHLLVAGLGLAGVNVPRLYQDVVNWQHPFAAMYVTTDLHTACIGAHRGADGAVIITGTGSCGYAHVGDASLSIGGHGFALGDKGSGAWLGLKAAEHVLLALDGFATPTALTEMLLSHLGVKDALGIVEHLAGKSSSCYAQLARNVLDCANAGDQVAIAIVQEGADYISEMARKLFMLNPVRFSMIGGLAEPLQAWLGSDVVAKISETLAPPELGAMYYAQQQFNSATVLEHHHHHH	soluble
MGNICIGGPRMSQQVYSPERADTPQRNALREQTEADIEQNSESMRLQQKIDDLKPYVSNATGPMKAYGQAAMDRASGKKTYVSFAELDAEHLDAMVDVENQRNPDLNLRYFKHHKEFIQALESDGPSSFRAIYPLTKPRTGQAAKHHVMADVRLTPCEPPSIVITEPGVIVGKRNKQLHRHNQTLEDLSESGVQLSQVAIIETQAQKTPDDCVMYCLNYAIKAHKNADKFDDIHHGLQRGTFVNRINGRRVQDADHCGHF	not soluble
MGNNVVVLGTQWGDEGKGKIVDLLTERAKYVVRYQGGHNAGHTLVINGEKTVLHLIPSGILRENVTSIIGNGVVLSPAALMKEMKELEDRGIPVRERLLLSEACPLILDYHVALDNAREKARGAKAIGTTGRGIGPAYEDKVARRGLRVGDLFDKETFAEKLKEVMEYHNFQLVNYYKAEAVDYQKVLDDTMAVADILTSMVVDVSDLLDQARQRGDFVMFEGAQGTLLDIDHGTYPYVTSSNTTAGGVATGSGLGPRYVDYVLGILKAYSTRVGAGPFPTELFDETGEFLCKQGNEFGATTGRRRRTGWLDTVAVRRAVQLNSLSGFCLTKLDVLDGLKEVKLCVAYRMPDGREVTTTPLAADDWKGVEPIYETMPGWSESTFGVKDRSGLPQAALNYIKRIEELTGVPIDIISTGPDRTETMILRDPFDA	soluble
MGNQYVKPERTGNSPYTRSGVPPPALVKTGDKPLHRVNDRMSLELHMADERVRAAGLSPAEREWRKKWVHDQHLHADEPVVVDAVHRQLNPIRTAYRLPWDKFYLHYLKPTFGVYYGTAIRVTAPKLLMAFVVVQTAYYYWKYEVKDWTHLRGLESMPQKEVIASAPAIEEKFPGLMDKGLANPSKDDYYTPTFNKRTAYLDVGETKRPW	not soluble
MGPTPHIAVIGGGSTGAGIARDLAMRGLDVTLVEQGNLTHGTTGRMHGLLHSGGRYAVSDQASATECIEENRVLRDIASHCVEMTGGLFVKRPEDSEEYFQKKLNGCEECGIPAEVVSGEEARAMEPHLAKDIDKAISVPDGAIDPFRLVVANAASAQEHGARIETHTKVTDLLVESGEVVGIEVEHDSGPGKRVHGTEGGTEQIRADYVVNATGAWAGRIGDMAGLDIEVRPSKGVMTIMNIRQVDTVINRCRPKGDADIVVPHETTAILGTTDEEVEDPEDYPEEQWEVDMMIDTLSELIPMLDEARTIRSFWGVRPLYEPPDVGSDDPTDITRDFFLLDHDERDDLPGMTSIVGGKFTTYRMMGEQIADHVCGKFGIDADCRTADEPLPGSEDFSVLRDYMDEFGLRSPIGRRSVERLGSRADDVLKTDGPNPTVCACEGVTRAEIQDAIGGSGSDLNAVRIRTRASMGNCQGGFCSHRMASELHSEYDEPVVREAWDELLQERWKGQRHALWGEQLSQAALNYALHATTQNRDQDPADGEPVDFSAFDSGRGQTGGSVDSADVAADGGTNGYLEHHHHHH	not soluble
MGQEVSLLAVKTEPLNSSETTATTGDGALDTFTGSVITSSGYSPRSAHQYSPQLYPSKPYPHILSTPAAQTMSAYAGQTQYSGMQQPAVYTAYSQTGQPYSLPTYDLGVMLPAIKTESGLSQTQSPLQSGCLSYSPGFSTPQPGQTPYSYQMPGSSFAPSSTIYANNSVSNSTNFSGSQQDYPSYTAFGQNQYAQYYSASTYGAYMTSNNTADGTPSSTSTYQLQESLPGLTNQPGEFDTMQSPSTPIKDLDERTCRSSGSKSRGRGRKNNPSPPPDSDLERVFVWDLDETIIVFHSLLTGSYAQKYGKDPPMAVTLGLRMEEMIFNLADTHLFFNDLEECDQVHIDDVSSDDNGQDLSTYSFATDGFHAAASSANLCLPTGVRGGVDWMRKLAFRYRRVKELYNTYKNNVAGLLGPAKRDAWLQLRAEIEGLTDSWLTNALKSLSIISTRSNCINVLVTTTQLIPALAKVLLYSLGGAFPIENIYSATKIGKESCFERIMQRFGRKVVYVVIGDGVEEEQAAKKHNMPFWRISSHSDLLALHQALELEYL	not soluble
MGQFPRTVVHAAGTTEITTKPERVVVLDTGELDSVLSLGITPVGMTTTKGANPVPSYLADKVKDVERVGTINELNIEAIAALKPDLIIGSQLRADKLYPQLSDIAPTVFSIRPGSPWKENFLLVGEALGMEKEAEEKLNEYADRVAELKNNVPQNTEVSLVRFMPNKLRLYGNKSLIGVVLADAGLARPEKQNVDDLAVEISPENIDQAAGSVIFYTSYGKPDATGETAVVEGPAWKNLEAVAAGKAHRVNDDVWFLGLGPTGAMEIVSDLHDYLLEHHHHHH	soluble
MGQGANILGFGGDRSFNLAGNRAGFALGSNNGALVGGQRVGVDGGIGGGREGVEMGSQVQFGNEPNPGHPAGQFGSFMDNVKNFFSFLGRGMPMPPQQPPPSPPFSLGVTRPPTLIGTERSESENGGRHRPRPWFPEGEQIPEVTGEMRPKEGEAGISSSSSSSSETEFIGPNNGEIPRKSVEFSIDKEPREEFTEDLFTAQTSRPRELPGLIEFA	not soluble
MGQMADRLAALVVTAFSPDGQIEGSYGAAAGANIRFNGNSYRHYTERGLGHQLSRMAVLVWIAHQRGHDATVAEVTGQPVSRRQETWDARRRRFREEQAETESEGMSTGGLVYFRNTGMRDWHIVIRDGTLSKLDEPEFVKEFLSGYAALSLDYRHKMTKLRTKHYGPDIWMKK	not soluble
MGQPPAEEAEQPGALAREFLAAMEPEPAPAPAPEEWLDILGNGLLRKKTLVPGPPGSSRPVKGQVVTVHLQTSLENGTRVQEEPELVFTLGDCDVIQALDLSVPLMDVGETAMVTADSKYCYGPQGSRSPYIPPHAALCLEVTLKTAVDLEHHHHHH	soluble
MGQTVNEDSMDVKKENQEKTPQSSTSSVQRDDFHWEEYLKETGSISAPSECFRQSQIPPVNDFKVGMKLEARDPRNATSVCIATVIGITGARLRLRLDGSDNRNDFWRLVDSPDIQPVGTCEKEGDLLQPPLGYQMNTSSWPMFLLKTLNGSEMASATLFKKEPPKPPLNNFKVGMKLEAIDKKNPYLICPATIGDVKGDEVHITFDGWSGAFDYWCKYDSRDIFPAGWCRLTGDVLQPPGTS	soluble
MGRAMGDSFTFIFNPAADKGRAADKTALIERSLAHFEVASLETTRFAGHAAEIARAAAGEGSTLIACGGDGTLNEVVNAVAGQPVKVGVLPVGSANDFLKTFNPSAKEHEVRIRGFAGATSRKVDLGKVEFGGGESRYFVNSIGIGFTGRIASTVKSVKWLRGELSYAWALVSVLLGYSAVKMHITLDTVEGKIELDEPVFAFSVSNGRVEGGKFRIAPEADPFDGLLDVCILKAVSKWRVPGYVLKYLKGSQIHDPNVIYCKARSVEVFLSVSEAMHMDGEVIEKVGGAIAITAEPLAVEMLYEP	not soluble
MGRGIAQIIRHDEPTDEIVDKFYRQINNPVLANINLQWEGDGDSPIIYPCNPPDLFAEQPLVLFGKKPDARGGKLHITGIVAGGTHYQHTFDLNFEETGNPAIAQLWGRYRIKELMNLMVSGETKLGVEAVTDTALTYQMLSQYTAFVAVSDDVRVDSLQETVSVQVPVEMAEGISYLGIFGSAVSAAAPIMANMVLEHHHHHH	not soluble
